Entries after “also recorded” stand apart in the source; their conditions may differ.
Assays:
endogenous CREB1 = target: T1, endogenous CREB1 (Homo sapiens, UniProt P16220); experiment: Immuno-precipitation of FLAG-tagged CREAP1 variants and Western blot against CREB in HEK293 cells; assay type: binding; settings: M2-agarose immuno-precipitation, Western blot against CREB
T1 construct: endogenous in cells; host or cells: HEK293
Protocol: To determine if CREAP1 can interact directly with CREB, K1 and K5 variants of CREAP1 (see Table 1) were transfected into HEK293 cell grown in 100 mm dishes (Falcon) using Fugene6 reagent (Roche Applied Science) according to the protocol provided by the manufacturer. 40 hours after transfection, cells were scraped from the plates in PBS and lysed in 800 μl of Low Stringency buffer containing: 10 mM HEPES pH 7.6, 250 mM NaCl, 5 mM EDTA, 1 mM DTT, 0.1% NP-40 and freshly dissolved protease inhibitors. Immuno-precipitation was carried out using M2-agarose beads (Sigma). Precipitated proteins were separated on 4-20% of SDS-PAGE (Invitrogen) and transferred to nitrocellulose membrane (Invitrogen). Western blot were performed using antibody against CREB (Cell Signaling Technology). As a negative control expression construct encoding FLAG-tagged human histone deacetylase 1 (HDAC1) was used.

[1] = system: pCRE-Luc reporter (cyclic AMP response element); experiment: pCRE-Luc reporter assay of CREAP1 deletion fragments in Hela cells; assay type: cell-based; settings: Flag-CREAP1 deletion constructs co-transfected with pCRE-Luc in Hela cells; Dual-Glo Luciferase 40 hrs after transfection
Protocol: CREAP1 protein amino acids 1-170, 1-356, […], 1-580 and 170-650 are inserted into pFlag-CMV4 expression vector (Sigma, St. Louis, Mo.) by utilizing PCR strategy familiar to one of skill in the art. 10^4 Hela cells are split into each well of 96 well tissue culture plates. Cells are transfected 16 hours later with 100 ng of pCRE-Luc reporter construct, 30 ng of Renilla luciferase control plasmid together with 100 ng of pCMVSPORT6, pCMVSPORT-CREAP1 and different Flag-CREAP1 deletion fusion constructs respectively. Transfection is done with Fugene6 reagent (Roche Applied Biosciences) following the manufacturer's instructions. A Dual-Glo Luciferase assay (Promega) is conducted 40 hrs after transfection. Firefly luciferase counts are normalized to Renilla luciferase and plotted.
To dissect the functional domains within the CREAP1 molecule, CREAP1 protein fragments of amino acids 1-170, 1-356, 1-494, 1-580 and 170-650 were subcloned into pFlag-CMV4 vector by utilizing PCR based strategy and tested for function in a Dual Glo Luciferase assay as described above.

T1 sequence (P16220 whole entry): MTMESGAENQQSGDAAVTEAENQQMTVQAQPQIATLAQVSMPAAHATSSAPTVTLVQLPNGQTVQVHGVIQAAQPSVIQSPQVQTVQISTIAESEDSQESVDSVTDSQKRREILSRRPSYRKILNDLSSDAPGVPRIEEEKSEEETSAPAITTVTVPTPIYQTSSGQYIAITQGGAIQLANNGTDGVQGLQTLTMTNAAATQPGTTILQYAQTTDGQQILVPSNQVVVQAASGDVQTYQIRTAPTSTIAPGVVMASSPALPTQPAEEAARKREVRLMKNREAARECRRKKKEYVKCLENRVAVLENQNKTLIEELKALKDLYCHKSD

association with endogenous CREB1 (endogenous CREB1): associated with endogenous CREB1
B1: K1: CREAP1 fragment, amino acids 1-170, SEQ ID NO 32, Flag fusion (protein)
chain: MATSNNPRKFSEKIALHNQKQAEETAAFEEVMKDLSLTRAARLQLQKSQYLQLGPSRGQYYGGSLPNVNQIGSGTMDLPFQPSGFLGEALAAAPVSLTPFQSSGLDTSRTTRHHGLVDRVYRERGRLGSPHRRPLSVDKHGRQADSCPYGTMYLSPPADTSWRRTNSDSA
modifications: Flag tag; human
Activity [1]: not sufficient for its function; also recorded: Inactive

Reference: patent publication US20070036810A1, “Cyclic amp response element activator proteins and uses related thereto” (priority 2003, published 2007)
